This note sets out measurements from patent US20230279089A1 (GlaxoSmithKline, published 2023).

The target of one test is T1, Human BMP1-1 (human, UniProt P13497-2 121-730, limits assumed).
T1 sequence (looked up): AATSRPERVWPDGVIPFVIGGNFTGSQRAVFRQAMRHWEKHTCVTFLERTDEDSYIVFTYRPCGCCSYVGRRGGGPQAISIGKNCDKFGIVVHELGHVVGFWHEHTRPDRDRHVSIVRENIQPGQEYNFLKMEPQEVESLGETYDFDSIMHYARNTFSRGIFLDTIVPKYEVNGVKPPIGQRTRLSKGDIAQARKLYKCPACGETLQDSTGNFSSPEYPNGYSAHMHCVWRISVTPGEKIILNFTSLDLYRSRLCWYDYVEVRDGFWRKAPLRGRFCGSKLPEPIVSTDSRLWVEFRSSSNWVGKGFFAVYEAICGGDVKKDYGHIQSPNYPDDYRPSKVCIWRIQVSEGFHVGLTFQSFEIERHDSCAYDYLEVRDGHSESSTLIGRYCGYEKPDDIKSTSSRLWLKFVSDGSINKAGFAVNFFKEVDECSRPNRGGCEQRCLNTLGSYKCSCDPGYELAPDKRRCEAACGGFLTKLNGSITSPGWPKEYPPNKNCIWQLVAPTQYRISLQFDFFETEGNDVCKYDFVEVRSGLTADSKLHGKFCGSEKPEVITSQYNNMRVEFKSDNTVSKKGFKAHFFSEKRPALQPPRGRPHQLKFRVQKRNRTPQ
The experiment in a line: cell-based or functional assay.

The next test addresses T2, Mouse BMP1-3: 126-707 (mouse, UniProt P98063 126-707).
T2 sequence (looked up): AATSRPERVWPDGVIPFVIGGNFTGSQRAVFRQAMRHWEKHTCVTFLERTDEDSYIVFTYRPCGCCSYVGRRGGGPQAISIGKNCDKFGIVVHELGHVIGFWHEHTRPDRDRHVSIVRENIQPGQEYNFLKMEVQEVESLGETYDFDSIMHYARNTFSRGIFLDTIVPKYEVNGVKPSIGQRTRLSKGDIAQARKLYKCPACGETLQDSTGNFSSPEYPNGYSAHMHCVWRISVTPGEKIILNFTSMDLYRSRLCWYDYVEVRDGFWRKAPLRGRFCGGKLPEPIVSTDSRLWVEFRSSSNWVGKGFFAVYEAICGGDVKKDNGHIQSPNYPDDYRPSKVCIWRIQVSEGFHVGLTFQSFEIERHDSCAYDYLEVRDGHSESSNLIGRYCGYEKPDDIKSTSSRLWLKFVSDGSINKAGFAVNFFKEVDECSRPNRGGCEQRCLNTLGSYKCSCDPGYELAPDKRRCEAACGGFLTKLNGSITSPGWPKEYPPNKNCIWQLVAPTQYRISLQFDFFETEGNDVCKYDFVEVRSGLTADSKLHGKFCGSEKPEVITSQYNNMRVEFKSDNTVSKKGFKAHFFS
As to the kind of experiment: cell-based or functional assay.

The target in test [1] is T3, Human BMP1 CD+CUB1 truncated antigen (human, UniProt P13497 121-434, limits assumed).
T3 construct: domain: CD+CUB1
T3 sequence (looked up): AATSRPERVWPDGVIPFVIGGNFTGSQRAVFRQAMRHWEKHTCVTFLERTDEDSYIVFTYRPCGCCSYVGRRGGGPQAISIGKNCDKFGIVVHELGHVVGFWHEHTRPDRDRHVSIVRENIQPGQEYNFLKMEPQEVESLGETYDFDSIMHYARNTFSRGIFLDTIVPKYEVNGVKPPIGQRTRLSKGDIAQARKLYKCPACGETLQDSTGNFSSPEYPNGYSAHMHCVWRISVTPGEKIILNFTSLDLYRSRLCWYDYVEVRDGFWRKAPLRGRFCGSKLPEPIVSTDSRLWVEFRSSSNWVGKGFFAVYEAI
The experiment in a line: SPR, captured mAb, enzyme dilution buffer. A general note: SPR reads the build-up and loss of mass on a sensor chip optically.

Test [2] deals with T4, Human TLL2 CD+CUB1 truncated antigen (human, UniProt Q9Y6L7 150-463, limits assumed).
T4 construct: domain: CD+CUB1
T4 sequence (looked up): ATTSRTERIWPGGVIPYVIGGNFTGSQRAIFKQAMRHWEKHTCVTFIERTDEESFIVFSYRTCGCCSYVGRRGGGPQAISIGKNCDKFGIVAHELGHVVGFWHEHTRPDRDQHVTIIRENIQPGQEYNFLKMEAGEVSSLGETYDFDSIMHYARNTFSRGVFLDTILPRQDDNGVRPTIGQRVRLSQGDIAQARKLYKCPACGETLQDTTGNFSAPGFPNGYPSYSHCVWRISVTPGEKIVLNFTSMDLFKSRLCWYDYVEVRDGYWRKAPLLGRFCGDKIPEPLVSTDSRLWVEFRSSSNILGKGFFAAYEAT
As to the kind of experiment: SPR, captured mAb, HBS-EP. The method, then: (§1) Both antibodies 13Y039-4B06-4334 and 13Y039-3E07-2944 and the reverse chimeric antibodies were evaluated for binding to human TLL2 CD+CUB1 and mouse BMP1 CD+CUB1 truncated antigens by SPR on a BIACORE T200. Protein A/G was immobilised to a CM5 sensor chip via amine coupling and the antibodies were captured to the protein A/G surface. The antigens were passed over the captured antibody at various concentrations. The measured affinities to human TLL2 CD+CUB1 are shown in Table 2 and the measured affinities to mouse BMP1 CD+CUB1 are shown in Table 3.

Test [3] concerns the target T5, Mouse BMP1 CD+CUB1 truncated antigen (mouse, UniProt P98063 126-439, limits assumed).
T5 construct: domain: CD+CUB1
T5 sequence (looked up): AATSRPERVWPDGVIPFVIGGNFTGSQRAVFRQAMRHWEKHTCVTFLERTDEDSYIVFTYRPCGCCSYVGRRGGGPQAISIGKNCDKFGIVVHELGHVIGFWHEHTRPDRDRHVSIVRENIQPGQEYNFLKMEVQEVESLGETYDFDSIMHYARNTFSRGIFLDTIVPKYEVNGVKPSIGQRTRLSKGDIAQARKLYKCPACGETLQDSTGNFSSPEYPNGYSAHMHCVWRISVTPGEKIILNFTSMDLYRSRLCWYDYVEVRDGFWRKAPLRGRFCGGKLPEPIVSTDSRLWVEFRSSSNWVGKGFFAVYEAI
The experiment in a line: SPR, captured mAb, HBS-EP. The method, then: as §1

The target in test [4] is T3, Human BMP1 CD+CUB1 truncated antigen. As to the kind of experiment: SPR, captured mAb, HBS-EP.

“And” between values parts separate entries of the source, which are not always exact repeats. Identical values can stand only once.

B1: 13Y039-4B06-4334 human variable region on rat IgG2b LAGA Fc and rat Kappa (Compound C) (antibody)
heavy: QVQLVQSGAEVKKPGASVKVSCKASGYTFLGYYMSWVRQAPGQGLEWMGWINPLSGETNYAQKFQGRVTMTRDTSISTAYMELSRLRSDDTAVYYCARDTGELDGMNWYFDLWGRGTLVTVSSAQTTAPSVYPLAPGCGDTTSSTVTLGCLVKGYFPEPVTVTWNSGALSSDVHTFPAVLQSGLYTLTSSVTSSTWPSQTVTCNVAHPASSTKVDKKVERRNGGIGHKCPTCPTCHKCPVPELAGAPSVFIFPPKPKDILLISQNAKVTCVVVDVSEEEPDVQFSWFVNNVEVHTAQTQPREEQYNSTFRVVSALPIQHQDWMSGKEFKCKVNNKALPSPIEKTISKPKGLVRKPQVYVMGPPTEQLTEQTVSLTCLTSGFLPNDIGVEWTSNGHIEKNYKNTEPVMDSDGSFFMYSKLNVERSRWDSRAPFVCSVVHEGLHNHHVEKSISRPPGK
light: EIVLTQSPATLSLSPGERATLSCRASQSVSSYLAWYQQKPGQAPRLLIYDASNRATGIPARFSGSGSGTDFTLTISSLEPEDFAVYYCQQSDSWPPTFGGGTKVEIKRADAAPTVSIFPPSTEQLATGGASVVCLMNNFYPRDISVKWKIDGTERRDGVLDSVTDQDSKDSTYSMSSTLSLTKADYESHNLYTCEVVHKTSSSPVVKSFNRNEC
As to B1, in the test with Human BMP1-1, the “pKi, app, FRET enzyme activity, Human BMP1” value is 11.8. Also, the “pKi, app, FRET enzyme activity, Mouse BMP1” value with Mouse BMP1-3: 126-707 came to 11.3.

B2: 13Y039-3E07-2944 human variable region on mouse IgG2a LAGA Fc, mouse cKappa (Compound B) (antibody)
heavy: QVQLQQWGAGLLKPSETLSLTCAVYGGSFFGDYWSWIRQPPGKGLEWIGEIDWSGATNYNPSLKSRVTISVDTSKNQFSLKLSSVTAADTAVYYCARGGSKELSFDIWGQGTMVTVSSAKTTAPSVYPLAPVCGDTTGSSVTLGCLVKGYFPEPVTLTWNSGSLSSGVHTFPAVLQSDLYTLSSSVTVTSSTWPSQSITCNVAHPASSTKVDKKIEPRGPTIKPCPPCKCPAPNLAGAPSVFIFPPKIKDVLMISLSPIVTCVVVDVSEDDPDVQISWFVNNVEVHTAQTQTHREDYNSTLRVVSALPIQHQDWMSGKEFKCKVNNKDLPAPIERTISKPKGSVRAPQVYVLPPPEEEMTKKQVTLTCMVTDFMPEDIYVEWTNNGKTELNYKNTEPVLDSDGSYFMYSKLRVEKKNWVERNSYSCSVVHEGLHNHHTTKSFSRTPGK
light: DIQMTQSPSSLSASVGDRVTITCQASQDIANYLNWYQQKPGKAPKLLIYDASNLETGVPSRFSGSGSGTDFTFTISSLQPEDIATYYCQQADTLPFTFGGGTKVEIKRADAAPTVSIFPPSSEQLTSGGASVVCFLNNFYPKDINVKWKIDGSERQNGVLNSWTDQDSKDSTYSMSSTLTLTKDEYERHNSYTCEATHKTSTSPIVKSFNRNEC
notes: Reverse chimera; also called 13Y039-3E07-2944, mIgG2a LAGA
Take B2: the Kd is 0.07 nM in test [1]; 2.66 nM and 6.2 nM in test [3]; 5.31 nM in test [4]. In addition, in test [2], the binding result was “no binding”.

As usually defined, the Kd is the free concentration of one partner at which half of the binding sites on the other are occupied at equilibrium, for simple one-to-one binding. Read a low Kd as higher affinity.
